Measured values as given in US20190359653A1 (Genentech, published 2019).
Ends that are not written are not given here.

Experiments:
[1] = target: T1, FZD7 receptor of HEK293-TB cells (human, UniProt O75084 33-574); assay: cell-based or functional assay
[2] = target: T1, FZD7 receptor of HEK293-TB cells; assay: cell-based or functional assay; remark: listed apart in the source
[3] = target: T1, FZD7 receptor of HEK293-TB cells; assay: cell-based or functional assay; remark: listed apart in the source
[4] = target: T2, hFZD8 CRD-Fc (human, UniProt Q9H461 28-158, limits assumed); assay: spot phage ELISA
T2 construct: domain: CRD; bought (R&D Systems); not shown: Fc part
T2 sequence (looked up): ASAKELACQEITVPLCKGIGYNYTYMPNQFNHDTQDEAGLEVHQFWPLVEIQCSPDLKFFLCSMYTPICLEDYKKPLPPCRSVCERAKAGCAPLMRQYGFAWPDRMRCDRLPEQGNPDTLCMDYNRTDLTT

[5] = target: T3, hFZD7 CRD-Fc (human, UniProt O75084 33-185); assay: spot phage ELISA
[6] = target: T4, hsFRP1 (human, UniProt Q8N474 32-314); assay: fluorescence size-exclusion chromatography (FSEC)
T4 construct: bought (R&D Systems); also called human sFRP1
T4 sequence (looked up): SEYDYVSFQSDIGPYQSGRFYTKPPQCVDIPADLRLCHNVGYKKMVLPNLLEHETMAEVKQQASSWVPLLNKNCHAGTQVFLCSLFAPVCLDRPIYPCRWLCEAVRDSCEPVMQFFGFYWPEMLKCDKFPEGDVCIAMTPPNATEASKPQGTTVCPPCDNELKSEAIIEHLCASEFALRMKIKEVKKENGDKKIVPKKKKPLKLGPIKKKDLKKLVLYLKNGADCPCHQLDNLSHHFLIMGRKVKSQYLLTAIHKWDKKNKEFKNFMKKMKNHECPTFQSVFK

[7] = target: T5, hsFRP2 (human, UniProt Q96HF1 25-295); assay: fluorescence size-exclusion chromatography (FSEC)
T5 construct: bought (R&D Systems); also called human sFRP2
T5 sequence (looked up): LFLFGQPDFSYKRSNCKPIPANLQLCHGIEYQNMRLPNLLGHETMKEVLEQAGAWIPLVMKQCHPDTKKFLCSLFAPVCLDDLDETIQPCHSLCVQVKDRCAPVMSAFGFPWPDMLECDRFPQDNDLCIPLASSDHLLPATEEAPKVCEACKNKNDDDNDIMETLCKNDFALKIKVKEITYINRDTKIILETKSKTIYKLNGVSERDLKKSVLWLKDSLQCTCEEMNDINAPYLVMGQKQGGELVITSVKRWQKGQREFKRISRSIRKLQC

[8] = target: T6, hsFRP-3 (human, UniProt Q92765 33-325); assay: fluorescence size-exclusion chromatography (FSEC)
T6 construct: bought (R&D Systems); also called human sFRP3
T6 sequence (looked up): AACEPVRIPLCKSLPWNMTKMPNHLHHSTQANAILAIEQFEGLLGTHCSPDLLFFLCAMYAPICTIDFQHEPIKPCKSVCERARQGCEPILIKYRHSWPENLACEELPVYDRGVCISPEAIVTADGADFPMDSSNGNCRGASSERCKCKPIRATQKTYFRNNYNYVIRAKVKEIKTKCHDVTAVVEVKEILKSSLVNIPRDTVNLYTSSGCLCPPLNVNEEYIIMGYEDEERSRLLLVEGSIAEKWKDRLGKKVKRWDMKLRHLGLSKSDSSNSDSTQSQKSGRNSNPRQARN

[9] = target: T7, hsFRP-4 (human, UniProt Q6FHJ7 22-346, limits assumed); assay: fluorescence size-exclusion chromatography (FSEC)
T7 construct: bought (R&D Systems); also called human sFRP4
T7 sequence (looked up): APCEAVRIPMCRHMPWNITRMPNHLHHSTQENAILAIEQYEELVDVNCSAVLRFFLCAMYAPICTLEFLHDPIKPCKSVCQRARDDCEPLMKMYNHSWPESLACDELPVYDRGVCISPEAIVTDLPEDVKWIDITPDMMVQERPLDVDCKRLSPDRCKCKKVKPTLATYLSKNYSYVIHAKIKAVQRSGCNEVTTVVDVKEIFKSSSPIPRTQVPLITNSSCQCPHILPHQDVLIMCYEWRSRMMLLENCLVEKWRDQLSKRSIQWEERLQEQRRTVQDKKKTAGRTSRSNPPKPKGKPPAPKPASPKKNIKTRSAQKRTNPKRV

[10] = target: T8, hsFRP-5 (human, UniProt Q5T4F7 30-317); assay: fluorescence size-exclusion chromatography (FSEC)
T8 construct: bought (R&D Systems); also called human sFRP5
T8 sequence (looked up): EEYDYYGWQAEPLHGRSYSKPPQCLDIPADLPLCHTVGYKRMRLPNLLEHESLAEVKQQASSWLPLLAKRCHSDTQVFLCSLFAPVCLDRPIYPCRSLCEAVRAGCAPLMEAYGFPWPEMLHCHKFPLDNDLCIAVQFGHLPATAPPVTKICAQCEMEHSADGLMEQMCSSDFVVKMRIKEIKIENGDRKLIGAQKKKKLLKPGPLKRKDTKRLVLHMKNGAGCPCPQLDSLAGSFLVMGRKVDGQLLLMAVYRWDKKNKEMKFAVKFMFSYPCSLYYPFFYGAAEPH

[11] = target: T9, hFZD1 CRD-Fc (human, UniProt Q9UP38 70-250, limits assumed); assay: fluorescence titration, 50 nM labelled peptide vs FZD CRD-Fc dilutions (Monolith NT.115)
T9 construct: domain: CRD; bought (R&D Systems); not shown: Fc part

[12] = target: T10, mFZD2 CRD-Fc (mouse, UniProt Q9JIP6 29-178, limits assumed); assay: as above
T10 construct: domain: CRD; bought (R&D Systems); not shown: Fc part

[13] = target: T11, mFZD7 CRD-Fc (mouse, UniProt Q61090 33-185); assay: as above
[14] = target: T3, hFZD7 CRD-Fc; assay: as above
[15] = target: T2, hFZD8 CRD-Fc; assay: fluorescence titration, 50 nM labelled peptide vs FZD CRD-Fc dilutions (Monolith NT.115); NC = no change
[16] = target: T12, hFZD4 CRD-Fc (human, UniProt Q9ULV1 37-180, limits assumed); assay: as above
T12 construct: domain: CRD; bought (R&D Systems); not shown: Fc part
T12 sequence (looked up): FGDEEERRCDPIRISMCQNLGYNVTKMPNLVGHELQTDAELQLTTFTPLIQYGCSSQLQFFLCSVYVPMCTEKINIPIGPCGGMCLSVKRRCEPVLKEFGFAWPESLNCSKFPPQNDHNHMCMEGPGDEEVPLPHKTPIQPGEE

[17] = target: T13, hFZD5 CRD-Fc (human, UniProt Q13467 27-167, limits assumed); assay: as above
T13 construct: domain: CRD; bought (R&D Systems); not shown: Fc part
T13 sequence (looked up): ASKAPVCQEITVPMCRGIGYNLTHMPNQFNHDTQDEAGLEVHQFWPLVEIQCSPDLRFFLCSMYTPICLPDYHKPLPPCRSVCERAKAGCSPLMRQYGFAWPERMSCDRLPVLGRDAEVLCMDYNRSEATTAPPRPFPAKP

[18] = target: T14, mFZD9 CRD-Fc (mouse, UniProt Q9R216 24-176, limits assumed); assay: as above
T14 construct: domain: CRD; bought (R&D Systems); not shown: Fc part
T14 sequence (looked up): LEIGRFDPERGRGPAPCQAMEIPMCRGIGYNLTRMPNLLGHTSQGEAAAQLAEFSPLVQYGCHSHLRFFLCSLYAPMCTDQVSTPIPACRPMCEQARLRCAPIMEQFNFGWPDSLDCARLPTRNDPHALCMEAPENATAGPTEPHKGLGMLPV

[19] = target: T15, hFZD10 CRD-Fc (human, UniProt Q9ULW2 21-161, limits assumed); assay: as above
T15 construct: domain: CRD; bought (R&D Systems); not shown: Fc part
T15 sequence (looked up): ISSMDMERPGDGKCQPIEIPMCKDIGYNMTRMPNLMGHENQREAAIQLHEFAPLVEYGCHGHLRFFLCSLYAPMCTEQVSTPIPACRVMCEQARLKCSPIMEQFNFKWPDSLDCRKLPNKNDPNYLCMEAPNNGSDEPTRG

[20] = target: T10, mFZD2 CRD-Fc; assay: as above
[21] = target: T11, mFZD7 CRD-Fc; assay: as above
[22] = target: T3, hFZD7 CRD-Fc; assay: as above

T9 sequence (Q9UP38 70-250 limits assumed): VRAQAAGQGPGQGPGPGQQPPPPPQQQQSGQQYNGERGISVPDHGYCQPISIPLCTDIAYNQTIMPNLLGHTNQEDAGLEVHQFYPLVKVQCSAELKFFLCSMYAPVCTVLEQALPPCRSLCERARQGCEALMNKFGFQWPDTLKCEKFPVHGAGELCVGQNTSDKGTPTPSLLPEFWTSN

B1: Fz7-21 (peptide)
peptide: Ac-LPSDDLEFWCHVMY-NH2
IC50, Wnt1-stimulated β-catenin signaling, HEK293-TB cells transfected with 5 ng plasmid (FIG. 2C) [1]: 1090 nM | IC50, Wnt1-stimulated β-catenin signaling, HEK293-TB cells transfected with 25 ng plasmid (FIG. 2C) [1]: 2660 nM | IC50, Wnt3a-stimulated β-catenin signaling, HEK293-TB cells transfected with 5 ng pCDNA3.2-Wnt3a (FIG. 2B) [1]: 330 nM | IC50, Wnt3a-stimulated β-catenin signaling, HEK293-TB cells transfected with 25 ng pCDNA3.2-Wnt3a (FIG. 2B) [1]: 419 nM | IC50, Wnt3a-stimulated β-catenin signaling, HEK293-TB cells, recombinant mWnt3a 50 ng/mL (FIG. 2A) [1]: 93.7 nM | IC50 (µM), Wnt3a-mediated β-catenin signaling, TOPbrite reporter in HEK293-TB cells (50 ng/mL mWnt3a) [2]: 0.1 µM | IC50 (nM), TOPbrite reporter assay in HEK293-TB cells stimulated with mWnt3a (50 ng/mL) [3]: 465 nM | Reduction in fold potency vs. dimer [3]: 42 fold

B2: Fz7-21N (peptide)
peptide: Ac-LPSDNLEFWCHVMY-NH2
IC50 (µM), Wnt3a-mediated β-catenin signaling, TOPbrite reporter in HEK293-TB cells (50 ng/mL mWnt3a) [2]: 0.41 µM

B3: SEQ ID NO 35 (peptide)
peptide: TSDFSWCLSWCDLIFW
modifications: not fully specified; cysteine pairing not given here
notes: cyclic peptide library
signal:noise ratio [4]: 1.27 | signal:noise ratio [5]: 28.4

B4: SEQ ID NO 37 (peptide)
peptide: FDFCSVMPHFIYCPGD
modifications: not fully specified; cysteine pairing not given here
notes: cyclic peptide library
signal:noise ratio [4]: 1.12 | signal:noise ratio [5]: 27.5

B5: SEQ ID NO 33 (peptide)
peptide: FDFCSVMPQFIYCPGD
modifications: not fully specified; cysteine pairing not given here
notes: cyclic peptide library; also called Fz7-20
signal:noise ratio [4]: 2.1 | signal:noise ratio [5]: 26

B6: SEQ ID NO 36 (peptide)
peptide: FDFCTVMPHFIYCPGD
modifications: not fully specified; cysteine pairing not given here
notes: cyclic peptide library
signal:noise ratio [4]: 2.01 | signal:noise ratio [5]: 27.4

B7: 5FAM-Fz7-21 (peptide)
peptide: LPSDDLEFWCHVMY-NH2
modifications: also: 5-carboxyfluorescein (5FAM) label, site not given here
notes: synthetic
binding result [6]: no binding (tested: 10 µM peptide, ~250 nM sFRP) | binding result [7]: no binding (tested: 10 µM peptide, ~250 nM sFRP) | binding result [8]: no binding (tested: 10 µM peptide, ~250 nM sFRP) | binding result [9]: no binding (tested: 10 µM peptide, ~250 nM sFRP) | binding result [10]: no binding (tested: 10 µM peptide, ~250 nM sFRP) | EC50 [11]: 39 nM | EC50 [12]: 60 nM | EC50 [13]: 67 nM | EC50 [14]: 116 nM | binding result [15]: no binding | binding result [16]: no binding | binding result [17]: no binding | binding result [18]: no binding | binding result [19]: no binding

B8: 5FAM-Fz7-21S (peptide)
peptide: LPSDDLEFWSHVMY-NH2
modifications: also: 5-carboxyfluorescein (5FAM) label, site not given here
notes: synthetic control peptide (C10S)
binding result [6]: no binding (tested: 10 µM peptide, ~250 nM sFRP) | binding result [7]: no binding (tested: 10 µM peptide, ~250 nM sFRP) | binding result [8]: no binding (tested: 10 µM peptide, ~250 nM sFRP) | binding result [9]: no binding (tested: 10 µM peptide, ~250 nM sFRP) | binding result [10]: no binding (tested: 10 µM peptide, ~250 nM sFRP) | binding result [15]: no binding | binding result [20]: no binding | binding result [16]: no binding | binding result [17]: no binding | binding result [21]: no binding | binding result [18]: no binding | binding result [19]: no binding | binding result [22]: no binding

B9: SEQ ID NO 32 (peptide)
peptide: SSDFSGCLSWCDLIFG
modifications: not fully specified; cysteine pairing not given here
notes: cyclic peptide library
signal:noise ratio [4]: 1.39 | signal:noise ratio [5]: 28.4
